From patent publication US20230348852A1, “METHODS AND COMPOSITIONS FOR OCULAR CELL THERAPY” (NOVARTIS AG, priority 2020, published 2023)

Assays:
B2M [1] = assay: sgRNA screening for B2M knockout in LSCs (nucleofection, FACS); assay type: cell-based, human; settings: Cas9 protein SEQ ID NO: 106, LSCs at passage 3, FACS after around 3 days
Protocol: Cells were cultured under these conditions for 24-48 hours at 37° C. in 5% CO2.
LSCs were nuclofected with selected gRNAs (Table 6) followed by FACS analysis / MACS separation.
After scraping the cells, the reaction was stopped by using cell culture medium containing 10% Serum and transferred to a falcon tube. After counting cells using Vi-cell 300′000 cells were prepared per reaction by transferring 300′000 cells in single tubes and centrifuged at 1000 rpm for 5 min. The supernatant was aspirated using manually pipetting to avoid cell loss and the cells were resuspended in the Stem cell nucleofector solution II (Lonza, Cat #VPH-5022). Resuspend cells in nucleofector solution immediately before adding the Cas9 RNP:sgRNA mixture. To obtain the nucleofection mixture, 5 µg high concentrated (≥5 µg/µl) Cas9 protein of SEQ ID NO: 106 (volume = 0.78 µl) was mixed with 19.5 µg sgRNA of Table 6 (volume = 12.2 µl) and incubated for 20 min at room temperature. […] The Cas9 protein-guideRNA complex was added to the cell suspension and transferred to the electroporation cuvette immediately. Cells were transfected using the nucelofector device (Lonza, Amaxa Nucleofector II) and program A023. After nucleofection cells were transferred from cuvette to one well of a 24 well synthemax coated plate containing pre-warmed LSC medium including 3 µM LATS compound and 10 µM Rock inhibitor Y-27632 (Nature 1997, vol. 389, pp. 990-994). Incubate LSCs in a 5% CO2 incubator for around 3 days until cells are 90% confluent.
LSCs were treated with TryLE®Express Enzym (ThermoFisher, Cat #12605010) for 15 minutes in 5% CO2 at 37° C. After scraping the cells, the reaction was stopped by using cell culture medium containing 10% Serum and transferred to a falcon tube for a centrifugation step (1000 rpm, 5 minutes). After aspirating the medium cells were resuspended in 200 µl FACS buffer (PBS/10%FBS).
To analyze the expression of B2M and HLA-ABC, 5 µl APC mouse anti-human β2-microglobulin antibody (Biolegend, Cat#316312) and 20 µl PE mouse anti-human HLA-ABC antibody (BD Bioscience, Cat # 560168) were added to the cell suspension and incubated for 30 minutes on ice.
Cells were washed 3 times after antibody labelling with FACS buffer and resuspended in 200 µl in FACS buffer (depending on the cell number).
FACS data were analyzed using BD FACSDiva software and FlowJo software.

[2] = test system: genomic DNA purified from male human peripheral blood mononuclear cells; assay: Biochemical assay for potential off-target genomic sites cleaved by Cas9 and B2M guides; settings: number of potential off-target sites, guide concentration 64 nM
Protocol: A biochemical method (See, e.g., Cameron et al., Nature Methods. 6, 600-606; 2017) was used to determine potential off-target genomic sites cleaved by Cas9 and selected B2M guides. Guides showing B2M indel activity were tested for potential off-target genomic cleavage sites with this assay. […] The number of potential off-target sites detected using a guide concentration of 64 nM in the biochemical assay are shown in Table 10. As a result of this analysis, several gRNAs were selected for analysis of potential off-target activity in limbal stem cells.

B2M [3] = assay: Targeted PCR and NGS (amplicon sequencing) of on-target and off-target sites in genome-edited LSCs; assay type: cell-based, human; settings: for validated indels for off-target activity in LSCs: amplicon sequencing of potential off-target loci; for Number of sites positive for off-target activity in LSCs: of the potential off-target loci sequenced; for B2M purified rhAmpSeq indel: purified (B2M negative) LSC populations
Protocol: Potential CRISPR/Cas9-mediated cutting sites identified above were evaluated using targeted PCR and NGS in genome-edited expanded LSCs.
Selected sgRNAs (SEQ ID NO: 120, 162, 166, 167, 171, and 175) were further analyzed by amplicon sequencing in edited and non-edited cells. Primers flanking the potential off-target sites for each guide were used to detect indels by NGS analysis in edited LSCs and non-edited peripheral blood mononuclear cells. Sites that had either (1) a difference in mean indel percentage between edited and unedited cells greater than 0.5%; or (2) a p value less than 0.05 between edited and unedited indel were further analyzed. NGS sequence reads for such sites were assessed for characteristic indel patterns near the putative Cas9 cut site. Based on the results, we could assess the specificity of gRNAs and their suitability for therapeutic applications.

human B2M = assay: CRISPR/Cas9-mediated deletion of B2M in HEK293 (lipofection, FACS); assay type: cell-based; settings: lipofection of tracrRNA, gRNA and Cas9 mRNA; FACS after 72 h
Protocol: One day before transfection, 500′000 HEK293cells (ATCC, Manassas, VA) were plated in a 35 mm dish and grown in DMEM/10%FBS. The following day, cells were transfected with a mixture of tracrRNA-gRNA-Cas9 mRNA. A stock of 10 micromolar was prepared resuspending 20 nanomoles of gRNA and 20 nanomoles tracrRNA in 2000 microlitre 10 millimolar Tris buffer pH7.4 each.
The mixture was added drop wise to the culture dish in 2.5 ml DMEM/10%FBS medium. The transfection reagent alone represented the transfection negative control.
After 6 h incubation in 5% CO2 at 37° C. medium was replaced with fresh DMEM/10%FBS medium. After 72 h in a 5% CO2 incubator cells were prepared for FACS analysis. FACS analysis: HEK293 cells were treated with Accutase (ThermoFisher, Cat # A1110501) for 20 minutes in 5% CO2 at 37° C. The reaction was stopped by using cell culture medium containing 10% Serum and transferred to a falcon tube for a centrifugation step (1000 rpm, 5 minutes). After aspirating the medium cells were resuspended in 200 microlitre FACS buffer (PBS/10%FBS).
To analyze the expression of B2M and HLA-ABC, 5 microlitre APC mouse anti-human β2-microglobulin antibody (Biolegend, Cat #316312) and 20 microlitre PE mouse anti-human HLA-ABC antibody (BD Bioscience, Cat # 560168) were added to the cell suspension and incubated for 30 minutes on ice. Cells were washed 3 times after antibody labelling with FACS buffer and resuspended in 500 microlitre in FACS buffer.
Each sample was transferred to one well of a round bottom 96 well plate and analyzed on a BD LSRFortessa X-20 device. FACS data were analyzed using BD FACSDiva software.

B1: CR000442: gRNA targeting human B2M; targeting domain SEQ ID NO: 134; sgRNA SEQ ID NO: 171 (nucleic acid)
guide: GGCCACGGAGCGAGACAUCUGUUUUAGAGCUAGAAAUAGCAAGUUAAAAUAAGGCUAGUCCGUUAUCAACUUGAAAAAGUGGCACCGAGUCGGUGCUUUU
modifications: listed as RNA, chemistry not given here
- B2M knockout efficiency in LSCs after nucleofection (B2M [1]): 62%
- off-target Site_ Count [2]: 29
- validated indels for off-target activity in LSCs (B2M [3]): zero
- Number of sites positive for off-target activity in LSCs (B2M [3]): 0 of 28
- Number of sites positive for off-target activity in LSCs (B2M [3]; listed as SEQ ID NO: 171): no predicted sites tested positive for off-target activity
- B2M purified rhAmpSeq indel (B2M [3]): 99.10±0.26%
- B2M purified rhAmpSeq indel (B2M [3]; listed as SEQ ID NO: 171): ~ 99%

B2: 6-HEYJA000001: gRNA targeting human B2M; targeting domain SEQ ID NO: 113; sgRNA SEQ ID NO: 164 (nucleic acid)
guide: GGCCGAGAUGUCUCGCUCCGGUUUUAGAGCUAGAAAUAGCAAGUUAAAAUAAGGCUAGUCCGUUAUCAACUUGAAAAAGUGGCACCGAGUCGGUGCUUUU
modifications: listed as RNA, chemistry not given here
- B2M knockout efficiency in HEK293 (human B2M): 47%
- B2M knockout efficiency in LSCs after nucleofection (B2M [1]): 33%
- off-target Site_ Count [2]: 8

B3: CR000443: gRNA targeting human B2M; targeting domain SEQ ID NO: 135; sgRNA SEQ ID NO: 172 (nucleic acid)
guide: CGCGAGCACAGCUAAGGCCAGUUUUAGAGCUAGAAAUAGCAAGUUAAAAUAAGGCUAGUCCGUUAUCAACUUGAAAAAGUGGCACCGAGUCGGUGCUUUU
modifications: listed as RNA, chemistry not given here
- B2M knockout efficiency in LSCs after nucleofection (B2M [1]): 25%
- off-target Site_ Count [2]: 117

B4: CR000455: gRNA targeting human B2M; targeting domain SEQ ID NO: 138; sgRNA SEQ ID NO: 175 (nucleic acid)
guide: UUACCCCACUUAACUAUCUUGUUUUAGAGCUAGAAAUAGCAAGUUAAAAUAAGGCUAGUCCGUUAUCAACUUGAAAAAGUGGCACCGAGUCGGUGCUUUU
modifications: listed as RNA, chemistry not given here
- B2M knockout efficiency in LSCs after nucleofection (B2M [1]): 24%
- off-target Site_ Count [2]: 48
- validated indels for off-target activity in LSCs (B2M [3]): zero
- Number of sites positive for off-target activity in LSCs (B2M [3]): 0 of 46
- Number of sites positive for off-target activity in LSCs (B2M [3]; listed as SEQ ID NO: 175): no predicted sites tested positive for off-target activity
- B2M purified rhAmpSeq indel (B2M [3]): 99.33±0.32%
- B2M purified rhAmpSeq indel (B2M [3]; listed as SEQ ID NO: 175): ~ 99%

B5: 4-CR004366: gRNA targeting human B2M; targeting domain SEQ ID NO: 111; sgRNA SEQ ID NO: 162; from Dharmacon (nucleic acid)
guide: CAGUAAGUCAACUUCAAUGUGUUUUAGAGCUAGAAAUAGCAAGUUAAAAUAAGGCUAGUCCGUUAUCAACUUGAAAAAGUGGCACCGAGUCGGUGCUUUU
modifications: listed as RNA, chemistry not given here
notes: gRNA targeting human B2M; from Dharmacon
- B2M knockout efficiency in HEK293 (human B2M): 48%
- B2M knockout efficiency in LSCs after nucleofection (B2M [1]): 22%
- off-target Site_ Count [2]: 92
- validated indels for off-target activity in LSCs (B2M [3]): zero
- Number of sites positive for off-target activity in LSCs (B2M [3]): 0 of 88
- Number of sites positive for off-target activity in LSCs (B2M [3]; listed as SEQ ID NO: 162): no predicted sites tested positive for off-target activity
- B2M purified rhAmpSeq indel (B2M [3]): 99.85±0.21%
- B2M purified rhAmpSeq indel (B2M [3]; listed as SEQ ID NO: 162): ~ 99%

B6: CR000453: gRNA targeting human B2M; targeting domain SEQ ID NO: 137; sgRNA SEQ ID NO: 174 (nucleic acid)
guide: CACAGCCCAAGAUAGUUAAGGUUUUAGAGCUAGAAAUAGCAAGUUAAAAUAAGGCUAGUCCGUUAUCAACUUGAAAAAGUGGCACCGAGUCGGUGCUUUU
modifications: listed as RNA, chemistry not given here
- B2M knockout efficiency in LSCs after nucleofection (B2M [1]): 5%
- off-target Site_ Count [2]: 82

B7: CR000446: gRNA targeting human B2M; targeting domain SEQ ID NO: 136; sgRNA SEQ ID NO: 173 (nucleic acid)
guide: AGGGUAGGAGAGACUCACGCGUUUUAGAGCUAGAAAUAGCAAGUUAAAAUAAGGCUAGUCCGUUAUCAACUUGAAAAAGUGGCACCGAGUCGGUGCUUUU
modifications: listed as RNA, chemistry not given here
- B2M knockout efficiency in LSCs after nucleofection (B2M [1]): 27%
- off-target Site_ Count [2]: 98

B8: 7-HEYJA000003: gRNA targeting human B2M; targeting domain SEQ ID NO: 114; sgRNA SEQ ID NO: 165 (nucleic acid)
guide: CUCGCGCUACUCUCUCUUUCGUUUUAGAGCUAGAAAUAGCAAGUUAAAAUAAGGCUAGUCCGUUAUCAACUUGAAAAAGUGGCACCGAGUCGGUGCUUUU
modifications: listed as RNA, chemistry not given here
- B2M knockout efficiency in HEK293 (human B2M): 37%
- B2M knockout efficiency in LSCs after nucleofection (B2M [1]): 8%

B9: 8-HEYJA000004: gRNA targeting human B2M; targeting domain SEQ ID NO: 115; sgRNA SEQ ID NO: 166 (nucleic acid)
guide: ACUCACGCUGGAUAGCCUCCGUUUUAGAGCUAGAAAUAGCAAGUUAAAAUAAGGCUAGUCCGUUAUCAACUUGAAAAAGUGGCACCGAGUCGGUGCUUUU
modifications: listed as RNA, chemistry not given here
- B2M knockout efficiency in HEK293 (human B2M): 65%
- B2M knockout efficiency in LSCs after nucleofection (B2M [1]): 22%
- off-target Site_ Count [2]: 62
- validated indels for off-target activity in LSCs (B2M [3]): zero
- Number of sites positive for off-target activity in LSCs (B2M [3]): 0 of 60
- Number of sites positive for off-target activity in LSCs (B2M [3]; listed as SEQ ID NO: 166): no predicted sites tested positive for off-target activity
- B2M purified rhAmpSeq indel (B2M [3]): 99.95±0.07%
- B2M purified rhAmpSeq indel (B2M [3]; listed as SEQ ID NO: 166): ~ 99%

B10: CR000456: gRNA targeting human B2M; targeting domain SEQ ID NO: 139; sgRNA SEQ ID NO: 176 (nucleic acid)
guide: CUUACCCCACUUAACUAUCUGUUUUAGAGCUAGAAAUAGCAAGUUAAAAUAAGGCUAGUCCGUUAUCAACUUGAAAAAGUGGCACCGAGUCGGUGCUUUU
modifications: listed as RNA, chemistry not given here
- B2M knockout efficiency in LSCs after nucleofection (B2M [1]): 3%
- off-target Site_ Count [2]: 66
